# Measured values published in the supplement of paper PMC9170038.
# Tested on: MS2 coat protein
# Assay: apparent KD of MS2 coat protein; higher = weaker reporter binding
# Conditions: Eterna round: R107; input ligand: arginine 13.2 mM
# Protocol: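 RNA-MaP round R107: designed RNA switches with theophylline, tryptophan, arginine or FMN aptamers are transcribed on-chip within common flanks. They are titrated with SNAP-549-labelled MS2 coat protein in RNA-MaP buffer (100 mM Tris pH 7.5, 80 mM KCl, 4 mM MgCl2), without ligand or with the indicated ligand. Median apparent KD per design.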
row,Sequence,apparent KD of MS2 coat protein [nM]
1,GGAUGAAACUGAAGGAGCGAGAUCACAAGAAUGGGUCAAACAUGAGGAUCACCCAUGUAAUCUCAGGUAGGUCGCAGUGUCCCUU [Exclusion Arginine B GF 11],40.1
2,CUUCAGGGUGCGGCCGCCACUUAUUAGGUGCUUGCGACGCCAGCACAUGAGGAUCACCCAUGUUCAAGGACCGGGCACCACCUUU [theeternabot_sameState_MS2_Trp_B_21],8.14
3,AACGUAUACAGAAGGAGCGUGAAUUAUAUUACUCAUUCAUAUACAUGAGGAUCACCCAUGUCACAGGUAGGUCGCUGUAUUCGUA [JR_ExcArginiB_Sub020],55.9
4,GGGCGCUAUCCCGCGAGGGAUAGCGUUCGUCGAGGACCGGUACGGCCGCCACUCGAACGAGUGGUGACAUGAGGAUCACCCAUGU [Oaa],39
5,GCGUUCUCUGCGGCCGCCACUCAAGGAGCUACAUAGCUCCUAGACAUGAGGAUCACCCAUGUGGCGAGGACCGGGUAGAUCCUUA [Same State Typptophan B GF7],76.3
6,UUGUUGUUUGGAAGGAGCGUGGAUGAGUUAGAACAUGAGGAUCACCCAUGUUGGAUGAUACCGCAGGUAGGUCGCCGGGUGGUGG [11.aA],141
7,GGUUGGUCGCAGGAUACCAGUCCACCCGUGAUACUGCUAAACAUGAGGAUCACCCAUGUCGACCCUUGGCAGCCUGUCCAUGCGU [theeternabot_exclusion_MS2_Theo_B_45],18.8
8,UCCACACAUGAGGAUCACCCAUGUUGAGAUACCAGUAAACCAAAAUACCCUUGGCAGCUCCUACGCUCUUACAGCGGGAAUAUCC [theeternabot_sameState_MS2_Theo_A_46],14.3
9,GCUAGUGGCAGAAGGAGCGGCAUACAUGCAAGUGACAUGAGGAUCACCCAUGUAAGGGAAUGCCAGGUAGGUCGCUGCCACUAGC [EAB NP+V+V2 #2 +-Same Structure],36.2
10,UAAUAAGUACCGGUCCUCAGAUCCUCAUGACGAGGACCGGUACGGCCGCCACUCGAAACAUGAGGAUCACCCAUGUAAUAAUAAU [|T'-M'-Trp-Ms2|_Design 1],17.9
11,ACAUGAAGAACAGCGGUGGGCGCGCUCGAUACCAGUAUUUUAAACUACCCUUGGCAGCGACAUGAGGAUCACCCAUGUGAGAUGA [XTheo A #6],16.9
12,CCUCACAUGAGGAUCACCCAUGUCUUUACACGAGGACCGGUACGGCCGCCACUCGUUCACAAAACAACCAGAAGUGAUGCCUACA [theeternabot_sameState_MS2_Trp_A_14],80.2
13,AGCGGCUCGAAAGAGUCGCACUCAUGUGAAGGAGCGCGCGUAAGCGCAGGUAGGUCGCACAUGAGGAUCACCCAUGUACCUUCUA [MAT - Exclusion Arginine A - Mod of Eli - D21],68.5
14,UAACAUGAGGAUCACCCAUGUUUGAAGAAACGAGGACCGGUACGGCCGCCACUCGACGAGUGGAUGAAUAGUGGGCUUGUGUGCU [Same State Trp A GF10],11
15,GGACUAACCUGAAGGAGCGACACGCAGAAACUGCAAAUUCCUCCACACGAGGAUCACCCGUGUCAGGUAGGUCGCAGGUUAGUCG [ArgBX 28],19
16,GAGCUGAUGUAGAGCCUUUAGUUCUGAGAUACCAGUACAGAAAUGUACCCUUGGCAGCUCAGCUUUACAUGAGGAUCACCCAUGU [Ex Theophylline A 17],20
17,GCGUUCUCUGCGGCCGCCACUCAAGGAGCUACAUAGCUCCUAGACAUGAGGAUCACCCAUGUCGCGAGGACCGGGUAGAUCCUUA [Same State Typptophan B GF8],116
18,AACAUGAGGAUCACCCAUGUCCCAUGUGAACGAGGACCGGUACGGCCGCCACUCGACCGAGGCGGCACAUGAGGAUCACCCACAU [whbob_SS_trypto A_2s13],137

row,Sequence,apparent KD of MS2 coat protein [nM]
1,GAACAUGAGGAUCACCCAUGUAAAACAGAUACCAGUGAUAUAAUACACCCUUGGCAGCUGUAGCUGAAUAAUAAUUCCCUCAAGC [#19 SameState-TheophyllineA],17
2,UACAUGAGGAUCACCCAUGUAUGAAUGGAUACCAGCGACAAUGGGCGCCCUUGGCAGCUAGUGGAUGAAGGGUGGGUACAAUACU [Exclusion Theophyline A GF4],11.4
3,GGGUGGUAGGCGGCCGCCACUGAUUUUCAUUUAUAGAUGACAUGAGGAUCACCCAUGUUUAUGUGCAGGACCGGGCCUGUUGUGG [aaaS],43.1
4,UGUAUGUGAUUUGAUACCAGACCAGCUGGUGGUACUUGAGGAUCACCCAGGUAGGUUUGGGUCCCUUGGCAGCAAAUCGCAUACU [SS Theo B #24 Ms12],293
5,AGCAUACAUUCUGAUACCAGAGACAUGAGGAUCACCCAUGUCCGAUCGUCCUGCCUCAGACUCCCUUGGCAGCAGGAUGUGUGCU [Exclusion Theophylline B GF6],13.1
6,AAAACAUGAGGAUCACCCAUGUGGUGAGAAGGAGCGUCGGAAAUGACAGGUAGGUCGCUUAUCCGUAAGUAUUAGUGUUAGUACA [SSArg A #1],140
7,CCUCAUGUGUAUCACCACAUGAGUGGUGAUACCAGCAUCGAAAGAUGCCCUUGGCAGCACCAACAUGAGGAUCACCCAUGUAAUA [(M)'-(T)'-(M)''-(T1)-(T2)-(M1)-(M2)_Design2],60.3
8,ACCUGUACGAAAAGUGCAGGACACGGAAUACGAGGACCGGUACGGCCGCCACUCGGAAUAAACCUGAGGAUCACCCUGGUCCGUG [TrypAS 9 #AlternativeMS2 #Zipper #StaticStem],26.8
9,UAAAACAUGAGGAUCACCCAUGUAUUUGAUACCAGAGUGAUGAUCCUCCCUUGGCAGCAAAUAACGCAUUGAUUACAAUGCGAAA [Mat - Same State Theophlline A - Mod of Eli - D28],34.8
10,AGACACAUGAGGAUCACCCAUGUACACGAGCGAGGACCGGUACGGCCGCCACUCGUCCAAGCAACUAAUGAGACUCGUAAGAUGG [theeternabot_sameState_MS2_Trp_A_5],17.1
11,ACAUGAGGAUCACCCAUGUUCCUCAUUGAUACCAGUGAAUUUAGACGCCCUUGGCAGCGAGUUUUUGAAGAAGAAGUUUUUUUUU [6.D],235
12,AGGUGCUGAUCGGCCGCCACUGAGAGGACGUGAACUUUAGCUGGUUACAUGAGGAUCACCCAUGUCAGGACCGGGAUUAGUUUGC [Quleorla],11.3
13,UCGUGUAUAUCGGAUACCAGUGAGAACGAUACAUGAGGAUCACCCAUGUGAGUUGAUGUACACCCUUGGCAGCUGUAUAUAUCUA [gghullin],18.9
14,AUAAGUAAUGUCUCGUGUAUUAUUACAGAUACCAGACUAUCCUAUGUCCCUUGGCAGCUGGAUUACAUGAGGAUCACCCAUGUGG [#11 Exclusion-TheophyllineA],37.6
15,GUUUUAUACUCGGCCGCCACUGAGAGAGUCAUGUAAACAUGAGGAUCACCCAUGUAAUAUAUAUACAGGACCGGGAGUAGGGUAA [4.F],10.1
16,AACAUGAGGAUCACCCAUGUCUGAACUGAAGGAGCGCUAAAUAAGGCAGGUAGGUCGCGGAAUUUUAUAUAUAUAUAUAUAUAGG [9.D],28.7
17,GUUGGACUUUCGGCCGCCACUGAGAGAGUCGUGUGAACAUGAGGAUCACCCAUGUAAUAUAUAUACAGGACCGGGAGGGUUGUAA [4.N],8.94
18,GGACUAACCUGAAGGAGCGGCACGCAGAAACUGCAAAUUCCUCCACACGAGGAUCACCCGUGUCAGGUAGGUCGCAGGUUAGUCG [ArgBX 28],18
